Positions count from the first letter of the chain named. Read-outs that look alike come from different tables or passages of the source.

The values that follow come from paper PMC13247719.

Holding throughout (assay): SPR
Data set [1] deals with T1, LIN28A (mouse, UniProt Q8K3Y3 1-209).
T1 sequence: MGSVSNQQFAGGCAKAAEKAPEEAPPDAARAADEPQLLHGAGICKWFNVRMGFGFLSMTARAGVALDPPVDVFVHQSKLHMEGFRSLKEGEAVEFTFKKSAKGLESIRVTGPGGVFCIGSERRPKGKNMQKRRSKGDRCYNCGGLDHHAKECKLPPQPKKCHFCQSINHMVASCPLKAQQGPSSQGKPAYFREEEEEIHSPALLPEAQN

Data set [2] has as its target T2, LIN28A H162A (mouse, UniProt Q8K3Y3 1-209, H162A).
T2 sequence: T1 sequence with H162A

In data set [3] the target is T1, LIN28A. This is another data set of the same source.
Data set [4] addresses T3, LIN28A CSD (mouse, UniProt Q8K3Y3 16-136).
T3 sequence: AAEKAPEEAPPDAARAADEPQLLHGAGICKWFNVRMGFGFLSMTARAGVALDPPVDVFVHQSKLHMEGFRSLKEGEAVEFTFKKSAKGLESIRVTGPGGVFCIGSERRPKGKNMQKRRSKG

Data set [5] has as its target T4, LIN28A H148A (mouse, UniProt Q8K3Y3 1-209, H148A).
T4 sequence: T1 sequence with H148A

Data set [6] has as its target T5, LIN28A I167A (mouse, UniProt Q8K3Y3 1-209, I167A).
T5 sequence: T1 sequence with I167A

The target in data set [7] is T6, LIN28A Y140A (mouse, UniProt Q8K3Y3 1-209, Y140A).
T6 sequence: T1 sequence with Y140A

GGGGUAGUGAUUUUACCCUGUUUAUGAGAU (structured_RNA) [preE-let-7f-1 UGAG] yielded a dissociation constant Kd in data set [1] of 387 nM.

For GGGGUAGUGAUUUUACCCUGUUUAGGAGAU (structured_RNA) [preE-let-7f-1 biotin], the Kd was 382 nM in data set [2]; 92 nM in data set [3]; 808 nM in data set [4]; 276 nM in data set [5]; 99.5 nM in data set [6]; 410 nM in data set [7].

As usually defined, the Kd is the equilibrium constant for the complex coming apart. Read a low Kd as a tighter complex.
